Data: patent publication US20200270365A1 (JIANGSU HENGRUI MEDICINE, published 2020)

Assays:
[1] = target: T1, PCSK9 protein inserted with biotin receiving peptide BP15 and His-tag: PCSK9-BP15-His6 (human, UniProt Q8NBP7 153-692; A8T644 31-152, biotin on the BP15 biotin receiving peptide (labeled during the expression)); experiment: ELISA, biotin PCSK9 on streptavidin plate
T1 construct: also called WT PCSK9; PCSK9 WT
Procedure: The binding ability of anti-PCSK9 antibodies of the present invention to PCSK9 protein (WT PCSK9, SEQ ID NO: 5) was detected by measuring the amounts of antibodies binding to PCSK9 immobilized on the ELISA plate.
(§1) Streptavidin (sigma, CAT #S4762) was diluted to 2 μg/ml with PBS and was added into a 96-well ELISA plate, at 4° C. for overnight. The plate was washed and then was blocked with Tris buffer (including 0.9 mM CaCl₂, 0.05% Tween 20 and 5% skim milk) at 37° C. for 2 hours. Then the plate was washed again and 100 μl/well of biotin-labeled PCSK9 (produced in-house, diluted with Tris buffer containing 0.9 mM CaCl₂, 0.05% Tween 20 and 1% skim milk) was added and incubated at 37° C. for 1 hour. After the wash step various concentrations of diluted PCSK9 antibody samples was added to the plate and incubated at 37° C. for 1 hour. […] Then the plate was washed and tetramethyl brenzidine solution was added for development. Finally, the stop buffer was added and the OD450 value was measured on the Microplate reader, and then EC50 was calculated.

[2] = target: T2, PCSK9 D374Y mutant protein inserted with biotin receiving peptide BP15 and His-tag: PCSK9-D374Y-BP15-His6 (human, UniProt Q8NBP7 153-692; A8T644 31-152, biotin on the BP15 biotin receiving peptide); experiment: ELISA, biotin PCSK9-Y on streptavidin plate
T2 construct: also called PCSK9-Y; mutant PCSK9
Procedure: The binding ability of anti-PCSK9 antibodies of the present invention to PCSK9-Y protein (mutant PCSK9, SEQ ID NO: 6) was detected by measuring the amounts of antibodies binding to PCSK9-Y immobilized on the ELISA plate.
as §1, with “hours. The” for “hours. Then the”, “washed” for “washed again”, “biotin-labeled PCSK9-Y” for “biotin-labeled PCSK9”, “wash step,” for “wash step”, “samples were” for “samples was”

[3] = target: T1, PCSK9 protein inserted with biotin …; experiment: competition ELISA, LDLR-FC coated, biotin PCSK9 + antibody
Procedure: The blocking ability of PCSK9 antibodies according to the present invention for the binding of LDLR-FC (produced in-house, with sequence of SEQ ID NO: 8) and PCSK9 (SEQ ID NO: 5) was tested by measuring the amount of PCSK9 binding to LDLR in the presence of the antibodies.
(§2) LDLR-FC was diluted to 5 μg/ml with phosphate buffer and was added into the 96-well ELISA plate, kept at 4° C. overnight. The plate was washed and then blocked with Tris buffer (including 0.9 mM CaCl₂, 0.05% Tween 20 and 5% skim milk) at 37° C. for 2 hours. Then the plate was washed and 100 μl/well of mixture of biotin-labeled PCSK9 (diluted to 2 μg/ml with Tris buffer containing 0.9 mM CaCl₂, 0.05% Tween 20 and 1% skim milk) and antibody samples (diluted with Tris buffer containing 0.9 mM CaCl₂, 0.05% Tween 20 and 1% skim milk) was added and incubated at 37° C. for 1 hour. Then the plate was washed again and horseradish peroxidase-streptavidin (sigma, CAT #S2438) was added and incubated at 37° C. for 1 hour. Then the plate was washed and tetramethyl brenzidine solution was added for development. Finally, the stop buffer was added and OD450 value was measured on the Microplate reader, then IC50 value was calculated.

[4] = target: T2, PCSK9 D374Y mutant protein inserted …; experiment: competition ELISA, LDLR-FC coated, biotin PCSK9-Y + antibody
Procedure: The blocking ability of PCSK9 antibodies according to the present invention for the binding of LDLR-FC and PCSK9-Y (mutant PCSK9, SEQ ID NO: 6) was tested by measuring the amount of PCSK9-Y binding to LDLR in the presence of the antibodies.
as §2, with “LDLR-FC (produced in-house, with sequence of SEQ ID NO: 8)” for “LDLR-FC”, “to 2” for “to 5”, “plate,” for “plate, kept”, “biotin-labeled mutant” for “biotin-labeled”, “to 1” for “to 2”

Row | Binder | EC50 [1] | EC50 [2] | IC50 [3] | IC50 [4]
1 | h011-3050 (antibody, V domains shown) VH: QVQLVQSGAEVKKPGASVKVSCKASGYTFTGYTIHWVRQAPGQGLEWMGEILPSSTYTKFNQKFKDRVTMTRDTSISTAYMELSRLRSDDTAVYYCARERIYSNYWFFDVWGQGTTVTVSS VL: DIVMTQSPSSLSASVGDRVTITCKASQNVYTAVAWYQQKPGKSPKLLIYSASNRYTGVPSRFSGSGSGTDFTLTISSLQPEDFATYFCQQYSSYPYTFGGGTKVEIK | 0.00312 µg/mL | 0.00525 µg/mL | 0.598 µg/mL | 0.123 µg/mL
2 | h011-3121 (antibody, V domains shown) VH: QVQLVQSGAEVKKPGASVKVSCKASGYTFTGYTIHWVRQAPGQGLEWMGYINPSSTYTKFNQKFKDRVTMTRDTSISTAYMELSRLRSDDTAVYYCARERIYSNYWFFDVWGQGTTVTVSS VL: DIVMTQSPSSLSASVGDRVTITCKASQNVYTAVAWYQQKPGKSPKLLIYSASNRYTGVPSRFSGSGSGTDFTLTISSLQPEDFATYFCQQLSSQPETFGGGTKVEIK | 0.00378 µg/mL | 0.00695 µg/mL | 0.662 µg/mL | 0.174 µg/mL
3 | h011-3095 (antibody, V domains shown) VH: QVQLVQSGAEVKKPGASVKVSCKASGYTFTGYTIHWVRQAPGQGLEWMGYINPSSTYTKFNQKFKDRVTMTRDTSISTAYMELSRLRSDDTAVYYCARERIYSNYWFFDVWGQGTTVTVSS VL: DIVMTQSPSSLSASVGDRVTITCKASQNVYTAVAWYQQKPGKSPKLLIYEASNRYTGVPSRFSGSGSGTDFTLTISSLQPEDFATYFCQQYSSYPYTFGGGTKVEIK | 0.00441 µg/mL | 0.0132 µg/mL | 0.582 µg/mL | 0.391 µg/mL
4 | h011-3070 (antibody, V domains shown) VH: QVQLVQSGAEVKKPGASVKVSCKASGYTFTGYTIHWVRQAPGQGLEWMGYINPSSTYTKFNQKFKDRVTMTRDTSISTAYMELSRLRSDDTAVYYCARENIYFNYWFFDRWGQGTTVTVSS VL: DIVMTQSPSSLSASVGDRVTITCKASQNVYTAVAWYQQKPGKSPKLLIYSASNRYTGVPSRFSGSGSGTDFTLTISSLQPEDFATYFCQQYSSYPYTFGGGTKVEIK | 0.00511 µg/mL | 0.0144 µg/mL | 0.629 µg/mL | 0.228 µg/mL
5 | h011-3118 (antibody, V domains shown) VH: QVQLVQSGAEVKKPGASVKVSCKASGYTFTGYTIHWVRQAPGQGLEWMGYINPSSTYTKFNQKFKDRVTMTRDTSISTAYMELSRLRSDDTAVYYCARERIYSNYWFFDVWGQGTTVTVSS VL: DIVMTQSPSSLSASVGDRVTITCKASQNVYWEVVWYQQKPGKSPKLLIYSASNRYTGVPSRFSGSGSGTDFTLTISSLQPEDFATYFCQQYSSYPYTFGGGTKVEIK | 0.00351 µg/mL | 0.00851 µg/mL | 1.04 µg/mL | 0.23 µg/mL
6 | h011-3093 (antibody, V domains shown) VH: QVQLVQSGAEVKKPGASVKVSCKASGYTFTGYTIHWVRQAPGQGLEWMGYINPSSTYTKFNQKFKDRVTMTRDTSISTAYMELSRLRSDDTAVYYCARERIYSNYWFFDVWGQGTTVTVSS VL: DIVMTQSPSSLSASVGDRVTITCKASQNVYTAVAWYQQKPGKSPKLLIYEMVNRYTGVPSRFSGSGSGTDFTLTISSLQPEDFATYFCQQYSSYPYTFGGGTKVEIK | 0.00381 µg/mL | 0.00989 µg/mL | 0.706 µg/mL | 0.287 µg/mL
7 | h011-3065 (antibody, V domains shown) VH: QVQLVQSGAEVKKPGASVKVSCKASGYTFTGYDIHWVRQAPGQGLEWMGYINPSSTYTKFNQKFKDRVTMTRDTSISTAYMELSRLRSDDTAVYYCARERIYSNYWFFDVWGQGTTVTVSS VL: DIVMTQSPSSLSASVGDRVTITCKASQNVYTAVAWYQQKPGKSPKLLIYSASNRYTGVPSRFSGSGSGTDFTLTISSLQPEDFATYFCQQYSSYPYTFGGGTKVEIK | 0.00539 µg/mL | 0.0109 µg/mL | 0.73 µg/mL | 0.312 µg/mL
8 | h011-3073 (antibody, V domains shown) VH: QVQLVQSGAEVKKPGASVKVSCKASGYTFTGYTIHWVRQAPGQGLEWMGYINPSSTYTKFNQKFKDRVTMTRDTSISTAYMELSRLRSDDTAVYYCARENIFSNYWFFDRWGQGTTVTVSS VL: DIVMTQSPSSLSASVGDRVTITCKASQNVYTAVAWYQQKPGKSPKLLIYSASNRYTGVPSRFSGSGSGTDFTLTISSLQPEDFATYFCQQYSSYPYTFGGGTKVEIK | 0.00389 µg/mL | 0.0123 µg/mL | 0.604 µg/mL | 0.129 µg/mL
9 | h011-3111 (antibody, V domains shown) VH: QVQLVQSGAEVKKPGASVKVSCKASGYTFTGYTIHWVRQAPGQGLEWMGYINPSSTYTKFNQKFKDRVTMTRDTSISTAYMELSRLRSDDTAVYYCARERIYSNYWFFDVWGQGTTVTVSS VL: DIVMTQSPSSLSASVGDRVTITCKASQNVYWEVDWYQQKPGKSPKLLIYSASNRYTGVPSRFSGSGSGTDFTLTISSLQPEDFATYFCQQYSSYPYTFGGGTKVEIK | 0.00498 µg/mL | 0.00681 µg/mL | 1.22 µg/mL | 0.226 µg/mL
10 | h011-3058 (antibody, V domains shown) VH: QVQLVQSGAEVKKPGASVKVSCKASGYTFTGYTIHWVRQAPGQGLEWMGEINPSGTYTKFNQKFKDRVTMTRDTSISTAYMELSRLRSDDTAVYYCARERIYSNYWFFDVWGQGTTVTVSS VL: DIVMTQSPSSLSASVGDRVTITCKASQNVYTAVAWYQQKPGKSPKLLIYSASNRYTGVPSRFSGSGSGTDFTLTISSLQPEDFATYFCQQYSSYPYTFGGGTKVEIK | 0.00369 µg/mL | 0.00606 µg/mL | 0.542 µg/mL | 0.162 µg/mL
11 | h011-3120 (antibody, V domains shown) VH: QVQLVQSGAEVKKPGASVKVSCKASGYTFTGYTIHWVRQAPGQGLEWMGYINPSSTYTKFNQKFKDRVTMTRDTSISTAYMELSRLRSDDTAVYYCARERIYSNYWFFDVWGQGTTVTVSS VL: DIVMTQSPSSLSASVGDRVTITCKASQNVYTAVAWYQQKPGKSPKLLIYSASNRYTGVPSRFSGSGSGTDFTLTISSLQPEDFATYFCQQFSWFPYTFGGGTKVEIK | 0.00538 µg/mL | 0.00711 µg/mL | 0.911 µg/mL | 0.213 µg/mL
